{"source": "paper PMC7587433", "about": "“A Giant Extracellular Matrix Binding Protein of Staphylococcus epidermidis Binds Surface-Immobilized Fibronectin via a Novel Mechanism” (mBio, 2020)", "binders": {"B1": {"name": "r5FG-repeats (recombinant Embp fragment, aa 6777 to 7406) (domain or fragment)", "chain": "ADQKLQDAKTDAKQQITNFTGLTEPQKQALENIINQQTSRANVAKQLSHAKFLNGKMEELKVAVAKASLVRQNSNYINEDVSEKEAYEQAIAKGQEIINSENNPTISSTDINRTIQEINDAEQNLHGDNKLRQAQEIAKNEIQNLDGLNSAQITKLIQDIGRTTTKPAVTQKLEEAKAINQAMQQLKQSIADKDATLNSSNYLNEDSEKKLAYDNAVSQAEQLINQLNDPTMDISNIQAITQKVIQAKDSLHGANKLAQNQADSNLIINQSTNLNDKQKQALNDLINHAQTKQQVAEIIAQANKLNNEMGTLKTLVEEQSNVHQQSKYINEDPQVQNIYNDSIQKGREILNGTTDDVLNNNKIADAIQNIHLTKNDLHGDQKLQKAQQDATNELNYLTNLNNSQRQSEHDEINSAPSRTEVSNDLNHAKALNEAMRQLENEVALENSVKKLSDFINEDEAAQNEYSNALQKAKDIINGVPSSTLDKATIEDALLELQNARESLHGEQKLQEAKNQAVAEIDNLQALNPGQVLAEKTLVNQASTKPEVQEALQKAKELNEAMKALKTEINKKEQIKADSRYVNADSGLQANYNSALNYGSQIIATTQPPELNKDVINRATQTIKTAENNLN"}}, "molecular_target": "T1, rFN12-14 (recombinant fibronectin type III repeats 12 to 14)", "T1 construct": "fibronectin, type III repeats 12 to 14; Held by its His tag on Immobilizer Nickel-Chelate plates in the adherence assays; immobilised on a C1 sensor chip in SPR", "test": "SPR; Biacore T200, C1 sensor chip; rFN12-14 immobilised (~870 RU); rF-, rFG-repeat or multiple repeats in HBS-EP injected at 40 μl/min; double referencing", "details": "both partners purified"}
{"binder": "B1", "values": [{"measurement": "Kd", "value": 10, "unit": "µM"}]}
